Results published in patent publication US20240360218A1 (KYMAB, published 2024).

Legend:
PD-L1-Fc (R&D Systems) = target: T1, PD-L1-Fc (R&D Systems) (UniProt Q9NZQ7 19-239); assay: plate ELISA/DELFIA (Example 5d): biotinylated antibody on plate-bound PD-L1-Fc, streptavidin-Eu, TRF at 615 nm
T1 construct: not shown: Fc part of the bought fusion protein, not described
Procedure: Excess protein was removed by washing with PBS-Tween (0.1% v/v) and the wells were blocked with 250 μL/well Pierce Protein Free Blocking Buffer (Thermo, 37572) for 1 hour, after which plates were washed as described previously. […] 100 μL each antibody dilution was added to the plates in duplicate and incubated for 1 hour at room temperature, before washing as stated above. Antibody binding was detected using streptavidin labelled Europium (Perkin Elmer) diluted 1/1000 in DELFIA Assay buffer (Perkin Elmer). Plates were washed with TBS (Tris buffered saline)-Tween (0.1% v/v) and 50 μL/well of DELFIA Enhancement solution (Perkin Elmer) was added to the plate. Time-resolved fluorescence was measured at 615 nm on an Envision plate reader (PerkinElmer).

[1] = target: T2, hPD-L1-his (in-house generated recombinant human PD-L1, his-tagged) (human, UniProt Q9NZQ7 19-238, limits assumed, biotinylated in the ELISA and AlphaScreen assays (site not stated)); assay: SPR (ProteOn), anti-human Fc capture, 25 C
T2 construct: also called biotinylated hPD-L1-his; biotinylated His-PD-L1
T2 sequence (Q9NZQ7 19-238 limits assumed): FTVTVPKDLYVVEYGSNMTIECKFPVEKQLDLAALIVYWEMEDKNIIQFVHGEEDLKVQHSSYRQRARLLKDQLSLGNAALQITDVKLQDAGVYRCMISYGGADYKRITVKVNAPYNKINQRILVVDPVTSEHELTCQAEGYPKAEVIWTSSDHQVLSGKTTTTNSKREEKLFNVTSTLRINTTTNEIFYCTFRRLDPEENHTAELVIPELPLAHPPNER
Procedure: Label-free surface plasmon resonance (SPR) analysis was carried out on the ProteOn XPR36 (BioRad) array SPR machine. […] The data was analysed using the 1:1 model inherent to the ProteOn XPR36 analysis software.
SPR analysis was performed as per Example 4 with the following amendments: analysis was performed at 37° C. as well as 25° C. to increase the stringency of the assay.

T1 sequence (Q9NZQ7 19-239 limits assumed): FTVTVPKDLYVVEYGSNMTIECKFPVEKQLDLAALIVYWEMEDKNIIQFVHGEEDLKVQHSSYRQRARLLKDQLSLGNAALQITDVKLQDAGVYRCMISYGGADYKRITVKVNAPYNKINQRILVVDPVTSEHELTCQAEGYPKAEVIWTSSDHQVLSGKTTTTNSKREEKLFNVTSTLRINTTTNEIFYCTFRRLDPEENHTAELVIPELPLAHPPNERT

B1: 1D05 (antibody, V domains shown)
VH: EVQLVESGGGLVQPGRSLRLSCAASGFTFDDYAMHWVRQVPGKGLEWVSGISWIRTGIGYADSVKGRFTIFRDNAKNSLYLQMNSLRAEDTALYYCAKDMKGSGTYGGWFDTWGQGTLVTVSS
VL: not shown
notes: kappa light chain; also called clone 1D05; anti-PD-L1 antibody 1D05
- EC50 (read off the curve) (PD-L1-Fc (R&D Systems)): ~0.4 nM

B2: 413G05 (antibody, human IgG1, V domains shown)
VH: QVQLVESGGGLVKPGGSLRLSCAASGFTFSDYYMSWIRQVPGKGLEWVSYISTSGSTIYYADSVKGRFTISRDNAKNSLYLQMNSLRAEDAAVYHCARGITGTNFYHYGLGVWGQGTTVTVSS
VL: DIQMTQSPSSVSASVGDRVTITCRASQGINSWLAWYQQKPGKAPKLLIYAASTLQSGVPSRFSGSGSGADFTLTISSLQPEDFATYYCQQVNSFPLTFGGGTKVEIK
- koff [1]: 6.23e-05 s⁻¹

B3: 84G09 (antibody, human IgG1, V domains shown)
VH: EVQLVESGGGLVQPGRSLRLSCAASGFTFDDYAMHWVRQTPGKGLEWVSGISWKSNIIGYADSVKGRFTISRDNAKNSLYLQMNSLRAEDTALYYCARDITGSGSYGWFDPWGQGTLVTVSS
VL: DIQMTQSPSSLSASVGDRVTITCRASQSISSYLNWYQQKPGKAPKPLIYVASSLQSGVPSSFSGSGSGTDFTLTISSLQPEDFATYYCQQSYSNPITFGQGTRLEIK
notes: kappa light chain; also called clone 84G09
- EC50 (read off the curve) (PD-L1-Fc (R&D Systems)): ~0.4 nM
